The values below come from US20150231240A1, “ANTI-C16ORF54 ANTIBODIES AND METHODS OF USE THEREOF” (priority 2012, published 2015).

For assay [1], the target named is T1, extracellular domain of c16orf54 (amino acids 1-31) fused to human IgG1 Fc (Homo sapiens, UniProt Q6UWD8).
T1 construct: the extracellular domain of c16orf54 (amino acids 1-31) either N terminal or C-terminal to a human IgG1 Fc domain; made in house; host or cells: 293 T cells, transient; Protein A purification
T1 sequence (Q6UWD8 1-31 limits assumed): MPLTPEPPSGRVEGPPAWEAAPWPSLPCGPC
In words: C16orf54 peptide-Fc fusion protein ELISA. The class given is binding. Particulars: serial dilution of antibody; HRP-conjugated anti mouse secondary. The protocol:
Anti-C16orf54 antibodies which bind to human C16orf54, including antibodies that are crossreactive with cyno C16orf54, were tested for their binding to various peptides derived from C16orf54 that were fused to human IgG (e.g., IgG1) constant regions to generate various peptide-Fc fusion proteins in an Fc-based ELISA. An exemplary Fc sequence comprises an IgG1 Hinge region sequence and IgG1 CH3 and […] domain sequences.
The fusion proteins were transiently expressed in 293 T cells. Protein was purified from the 293 expression supernatants by Protein A-based affinity purification. Exemplary C16 peptide-Fc fusion constructs that were made and purified are shown with their protein yield in Table 38. ELISA assays were performed by coating 384 well plates with the fusion proteins overnight at 4C. Antibodies were analyzed by serial dilution with concentrations ranging from 40 ug/mL to […]. Binding was detected with an HRP-conjugated anti mouse secondary antibody.
(In general: In an ELISA, binding on a coated surface is turned into a signal by an enzyme label.)

Assay [2] addresses T2, human C16orf54 (Homo sapiens, UniProt Q6UWD8).
T2 construct: expressed in transfected cells; host or cells: murine sarcoma cells (D42M1-huC16orf54)
T2 sequence (Q6UWD8 1-224): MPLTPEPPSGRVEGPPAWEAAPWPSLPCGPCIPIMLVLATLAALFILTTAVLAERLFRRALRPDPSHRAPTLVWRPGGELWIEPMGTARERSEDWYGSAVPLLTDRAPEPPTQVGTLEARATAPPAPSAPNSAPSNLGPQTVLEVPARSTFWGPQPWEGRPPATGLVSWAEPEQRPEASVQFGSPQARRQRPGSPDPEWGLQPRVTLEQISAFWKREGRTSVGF
Put plainly: Flow cytometry reactivity with sarcoma cells expressing human C16orf54 (fold change over isotype). The settings on record: for binding to human C16orf54 (flow cytometry): sarcoma cells expressing human C16orf54, 10 μg/ml antibody. The class given is binding. The protocol: (§1) Anti-C16orf54 antibodies which bound to human C16orf54 were tested for their reactivity with human C16orf54 and their crossreactivity with C16orf54 from cynomolgous monkeys (cyno C16orf54) using flow cytometry. Sarcoma cells transfected with and expressing human C16orf54 or cyno C16orf54 were washed with PBS with 0.1% BSA, incubated with FcX receptor blocking solution (BioLegend) for 15 minutes, incubated with 10 μg/ml of anti-C16orf54 antibody for 1 hour at 4° C., washed twice with PBS with 0.1% BSA, incubated with 20 μg/ml of R-Phycoerythrin-AffiniPure F(ab′)2 Fragment Goat Anti-Mouse IgG, Fcγ Fragment Specific (Jackson ImmunoResearch) for 30 minutes at 4° C., washed twice with PBS with 0.1% BSA, incubated with the viability dye TO-PRO-3 iodide (Life Technologies), and immediately analyzed on a MACSQuant Analyzer instrument (Miltenyi). For each cell line and anti-C16orf54 antibody, a fold change was derived by dividing the median fluorescence intensity for Phycoerythrin in the live cell population for the anti-C16orf54 antibody by the median fluorescence intensity for Phycoerythrin in the live cell population for the IgG isotype control antibody.
For orientation: A flow cytometer gives signals particle by particle.

For assay [3], the target named is T3, human C16orf54 ECD fragment aa9-24 (human).
T3 peptide: SGRVEGPPAWEAAPWP
In words: peptide ELISA, 2 ug/ml peptide coated, 10 ug/ml antibody. The protocol: (§2) Anti-C16orf54 antibodies which bind to human C16orf54, including antibodies that are crossreactive with cyno C16orf54, were tested for their binding to various peptides derived from C16orf54 in a peptide ELISA. A 384-well high binding black microplate (Greiner) was incubated with 2 μg/ml of protein (human, cyno, or mouse extracellular domain peptides) for 16 hours, incubated for 1 hr with a blocking buffer (PBS with 5% Fetal Bovine Serum), washed four times with TBS with Tween, incubated for 1 hour with 10 μg/ml of anti-C16orf54 antibody, washed four times with TBS with Tween, incubated for 1 hour with 10 μg/ml of Peroxidase-AffiniPure Goat Anti-Mouse IgG, Fcγ Fragment Specific (Jackson ImmunoResearch), washed four times with TBS with Tween, and peroxidase was detected with a luminometer (Molecular Devices) upon addition of SuperSignal® ELISA Pico Chemiluminescent Substrate (Thermo Scientific). The luminescence signal was determined.

For assay [4], the target named is T4, human C16orf54 ECD fragment aa1-15 (human).
T4 peptide: MPLTPEPPSGRVEGP
Described as above. The protocol: as §2

In assay [5] the target is T5, human C16orf54 (human, UniProt Q6UWD8 1-224).
T5 construct: also called huC16orf54; hC16orf54
T5 sequence: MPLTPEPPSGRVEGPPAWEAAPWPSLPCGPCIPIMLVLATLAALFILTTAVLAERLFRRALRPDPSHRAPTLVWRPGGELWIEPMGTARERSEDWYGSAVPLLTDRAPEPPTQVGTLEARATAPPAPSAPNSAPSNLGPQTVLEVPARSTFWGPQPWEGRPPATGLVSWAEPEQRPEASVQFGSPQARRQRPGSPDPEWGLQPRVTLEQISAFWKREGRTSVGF
In words: flow cytometry, KG-1 leukemia cells (endogenous C16orf54), 6 repeats.

Assay [6] deals with T6, cynomolgus monkey C16orf54 (cynomolgus monkey (Macaca fascicularis), UniProt Q6UWD8 1-224 (human entry)).
T6 construct: also called cyno C16orf54; cyno-C16orf54
T6 chain: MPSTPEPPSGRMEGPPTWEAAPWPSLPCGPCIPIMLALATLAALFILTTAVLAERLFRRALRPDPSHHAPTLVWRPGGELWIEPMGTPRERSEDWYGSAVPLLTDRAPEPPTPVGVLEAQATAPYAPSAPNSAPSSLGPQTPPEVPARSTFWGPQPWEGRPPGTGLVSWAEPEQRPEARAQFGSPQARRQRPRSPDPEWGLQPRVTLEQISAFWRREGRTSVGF
Put plainly: flow cytometry, 10 ug/ml antibody, F279-cyno-C16orf54 cells. The protocol: as §1, with “antibody. A number of anti-C16orf54 antibodies (see, e.g., R29-8-57B, R29-8-136C, R29-7-1C, R29-67-7A, R29-67-4A, and R29-7-2A) bind human C16orf54 and also bind (e.g., are crossreactive with) cyno C16orf54.” for “antibody.”

Assay [7] has as its target T5, human C16orf54. In words: flow cytometry, SW1990 pancreatic cancer cells (endogenous C16orf54), 3 repeats.

B1: R29-7-1C: murine anti-C16orf54 monoclonal antibody, IgG2a; VH SEQ ID NO: 8, VL SEQ ID NO: 10 (antibody, V domains shown)
VH: MRVLILLWLFTAFPGILSDVQLQESGPGLVKPSQSLSLTCTVTGYSITSDYAWNWIRQFPGNKLEWMGYISYSGSIRYNPSLKSRISITRDTSKNQFFLQLNSVTTEDTATYYCAREKYDNYYYAMDYWGQGTSVTVSS
VL: MDSQAQVLMLLLLWVSGTCGDIVMSQSPSSLAVSVGEKVTLSCKSSQNLLYSTNQKNYLAWYQQKPGQSPKLLIYWASTRESGVPDRFTGSGSGTDFTLTISSVKAEDLAVYYCQQYYSYRTFGGGTKLEIK
modifications: R29-7-1C heavy chain variable region; R29-7-1C light chain variable region
As to B1, the “binding to peptide-Fc fusion proteins (Fc-based ELISA)” value in assay [1] is recorded as “able to bind to the peptide-Fc fusion proteins”. Further, in the assay with human C16orf54 [2], the “binding to C16orf54-expressing cells (dual binders)” value is listed as “bind to C16orf54-expressing cells” and the “binding to human C16orf54 (flow cytometry)” value was “bind human C16orf54”.

B2: R29-67-7A: murine anti-C16orf54 monoclonal antibody, IgG2a; VH SEQ ID NO: 12, VL SEQ ID NO: 14 (antibody, V domains shown)
VH: MRVLILLWLFTAFPGILSDVQLQESGPGLVKPSQSLSLTCTVTGYSITSDYAWNWIRQFPGNKLEWMGYINYSGRTRYNPSLNSRISLTRDTSTNQFFLQLNSVTTEDTATYYCARENYDYEFYAMDYWGQGTSVTVSS
VL: MESQAQVLMLLLLWVSGTCGDIVMSQSPSSLAVSVGEKVTMSCKSSQNLLYSSNQKNYLAWYQQKPGQSPKLLIYWASTRESGVPDRFTGSGSGTDFTLTISSVKAEDLAVYYCQQYYIYRTFGGGTKLEIK
modifications: R29-67-7A heavy chain variable region; R29-67-7A light chain variable region
As to B2, the “binding to peptide-Fc fusion proteins (Fc-based ELISA)” value in assay [1] is recorded as “able to bind to the peptide-Fc fusion proteins”. In the assay with human C16orf54 [2], the “binding to C16orf54-expressing cells (dual binders)” value was “bind to C16orf54-expressing cells” and the “binding to human C16orf54 (flow cytometry)” value was “bind human C16orf54”.

B3: R29-7-1C (antibody, V domains shown)
VH: DVQLQESGPGLVKPSQSLSLTCTVTGYSITSDYAWNWIRQFPGNKLEWMGYISYSGSIRYNPSLKSRISITRDTSKNQFFLQLNSVTTEDTATYYCAREKYDNYYYAMDYWGQGTSVTVSS
VL: DIVMSQSPSSLAVSVGEKVTLSCKSSQNLLYSTNQKNYLAWYQQKPGQSPKLLIYWASTRESGVPDRFTGSGSGTDFTLTISSVKAEDLAVYYCQQYYSYRTFGGGTKLEIK
notes: Murine monoclonal IgG2a from a hybridoma
B3: the binding result in assay [3] and in assay [4] was “binds” each time. Besides, the “Average MFI fold change relative to isotype control” value with human C16orf54 [5] is 16.9 fold; in the assay with human C16orf54 [7], 1.9 fold. In assay [6], the “Median fold change relative to IgG control” value came to 53.7 fold.
